Measurements published in patent US20210388087A1 (Chugai, published 2021).

B1: H183/L072 VH Y58A (antibody, name in Kabat numbering, V domains shown)
VH: QVQLVESGGGLVQPGRSLRLSCAASGFTFSNAWMHWVRQAPGKGLEWVAQIKDKGNAYAAAYAPSVKGRFTISRDDSKNSIYLQMNSLKTEDTAVYYCHYVHYASASTVLPAFGVDAWGQGTTVTVSS
VL: DIVMTQSPLSLPVTPGEPASISCQASQELVHMNRNTYLHWYQQKPGQAPRLLIYKVSNRFPGVPDRFSGSGSGTDFTLKISRVEAEDVGVYYCAQGTSVPFTFGQGTKLEIK
B2: H183/L072 VH Y58L (antibody, name in Kabat numbering, V domains shown)
VH: QVQLVESGGGLVQPGRSLRLSCAASGFTFSNAWMHWVRQAPGKGLEWVAQIKDKGNAYAALYAPSVKGRFTISRDDSKNSIYLQMNSLKTEDTAVYYCHYVHYASASTVLPAFGVDAWGQGTTVTVSS
VL: DIVMTQSPLSLPVTPGEPASISCQASQELVHMNRNTYLHWYQQKPGQAPRLLIYKVSNRFPGVPDRFSGSGSGTDFTLKISRVEAEDVGVYYCAQGTSVPFTFGQGTKLEIK
B3: H183/L072 VH Y58H (antibody, name in Kabat numbering, V domains shown)
VH: QVQLVESGGGLVQPGRSLRLSCAASGFTFSNAWMHWVRQAPGKGLEWVAQIKDKGNAYAAHYAPSVKGRFTISRDDSKNSIYLQMNSLKTEDTAVYYCHYVHYASASTVLPAFGVDAWGQGTTVTVSS
VL: DIVMTQSPLSLPVTPGEPASISCQASQELVHMNRNTYLHWYQQKPGQAPRLLIYKVSNRFPGVPDRFSGSGSGTDFTLKISRVEAEDVGVYYCAQGTSVPFTFGQGTKLEIK
B4: H183/L072 VH Y58E (antibody, name in Kabat numbering, V domains shown)
VH: QVQLVESGGGLVQPGRSLRLSCAASGFTFSNAWMHWVRQAPGKGLEWVAQIKDKGNAYAAEYAPSVKGRFTISRDDSKNSIYLQMNSLKTEDTAVYYCHYVHYASASTVLPAFGVDAWGQGTTVTVSS
VL: DIVMTQSPLSLPVTPGEPASISCQASQELVHMNRNTYLHWYQQKPGQAPRLLIYKVSNRFPGVPDRFSGSGSGTDFTLKISRVEAEDVGVYYCAQGTSVPFTFGQGTKLEIK
B5: H183/L072 VH Y58W (antibody, name in Kabat numbering, V domains shown)
VH: QVQLVESGGGLVQPGRSLRLSCAASGFTFSNAWMHWVRQAPGKGLEWVAQIKDKGNAYAAWYAPSVKGRFTISRDDSKNSIYLQMNSLKTEDTAVYYCHYVHYASASTVLPAFGVDAWGQGTTVTVSS
VL: DIVMTQSPLSLPVTPGEPASISCQASQELVHMNRNTYLHWYQQKPGQAPRLLIYKVSNRFPGVPDRFSGSGSGTDFTLKISRVEAEDVGVYYCAQGTSVPFTFGQGTKLEIK
B6: H183/L072 VH Y58Q (antibody, name in Kabat numbering, V domains shown)
VH: QVQLVESGGGLVQPGRSLRLSCAASGFTFSNAWMHWVRQAPGKGLEWVAQIKDKGNAYAAQYAPSVKGRFTISRDDSKNSIYLQMNSLKTEDTAVYYCHYVHYASASTVLPAFGVDAWGQGTTVTVSS
VL: DIVMTQSPLSLPVTPGEPASISCQASQELVHMNRNTYLHWYQQKPGQAPRLLIYKVSNRFPGVPDRFSGSGSGTDFTLKISRVEAEDVGVYYCAQGTSVPFTFGQGTKLEIK
B7: H183/L072 VH Y58N (antibody, name in Kabat numbering, V domains shown)
VH: QVQLVESGGGLVQPGRSLRLSCAASGFTFSNAWMHWVRQAPGKGLEWVAQIKDKGNAYAANYAPSVKGRFTISRDDSKNSIYLQMNSLKTEDTAVYYCHYVHYASASTVLPAFGVDAWGQGTTVTVSS
VL: DIVMTQSPLSLPVTPGEPASISCQASQELVHMNRNTYLHWYQQKPGQAPRLLIYKVSNRFPGVPDRFSGSGSGTDFTLKISRVEAEDVGVYYCAQGTSVPFTFGQGTKLEIK
B8: H183/L072 VH Y58P (antibody, name in Kabat numbering, V domains shown)
VH: QVQLVESGGGLVQPGRSLRLSCAASGFTFSNAWMHWVRQAPGKGLEWVAQIKDKGNAYAAPYAPSVKGRFTISRDDSKNSIYLQMNSLKTEDTAVYYCHYVHYASASTVLPAFGVDAWGQGTTVTVSS
VL: DIVMTQSPLSLPVTPGEPASISCQASQELVHMNRNTYLHWYQQKPGQAPRLLIYKVSNRFPGVPDRFSGSGSGTDFTLKISRVEAEDVGVYYCAQGTSVPFTFGQGTKLEIK
B9: H183/L072 VH Y58I (antibody, name in Kabat numbering, V domains shown)
VH: QVQLVESGGGLVQPGRSLRLSCAASGFTFSNAWMHWVRQAPGKGLEWVAQIKDKGNAYAAIYAPSVKGRFTISRDDSKNSIYLQMNSLKTEDTAVYYCHYVHYASASTVLPAFGVDAWGQGTTVTVSS
VL: DIVMTQSPLSLPVTPGEPASISCQASQELVHMNRNTYLHWYQQKPGQAPRLLIYKVSNRFPGVPDRFSGSGSGTDFTLKISRVEAEDVGVYYCAQGTSVPFTFGQGTKLEIK
B10: H183/L072 VH Y58D (antibody, name in Kabat numbering, V domains shown)
VH: QVQLVESGGGLVQPGRSLRLSCAASGFTFSNAWMHWVRQAPGKGLEWVAQIKDKGNAYAADYAPSVKGRFTISRDDSKNSIYLQMNSLKTEDTAVYYCHYVHYASASTVLPAFGVDAWGQGTTVTVSS
VL: DIVMTQSPLSLPVTPGEPASISCQASQELVHMNRNTYLHWYQQKPGQAPRLLIYKVSNRFPGVPDRFSGSGSGTDFTLKISRVEAEDVGVYYCAQGTSVPFTFGQGTKLEIK
B11: H183/L072 VH Y58V (antibody, name in Kabat numbering, V domains shown)
VH: QVQLVESGGGLVQPGRSLRLSCAASGFTFSNAWMHWVRQAPGKGLEWVAQIKDKGNAYAAVYAPSVKGRFTISRDDSKNSIYLQMNSLKTEDTAVYYCHYVHYASASTVLPAFGVDAWGQGTTVTVSS
VL: DIVMTQSPLSLPVTPGEPASISCQASQELVHMNRNTYLHWYQQKPGQAPRLLIYKVSNRFPGVPDRFSGSGSGTDFTLKISRVEAEDVGVYYCAQGTSVPFTFGQGTKLEIK
B12: H183/L072 VH Y59E (antibody, name in Kabat numbering, V domains shown)
VH: QVQLVESGGGLVQPGRSLRLSCAASGFTFSNAWMHWVRQAPGKGLEWVAQIKDKGNAYAAYEAPSVKGRFTISRDDSKNSIYLQMNSLKTEDTAVYYCHYVHYASASTVLPAFGVDAWGQGTTVTVSS
VL: DIVMTQSPLSLPVTPGEPASISCQASQELVHMNRNTYLHWYQQKPGQAPRLLIYKVSNRFPGVPDRFSGSGSGTDFTLKISRVEAEDVGVYYCAQGTSVPFTFGQGTKLEIK
B13: H183/L072 VH Y59D (antibody, name in Kabat numbering, V domains shown)
VH: QVQLVESGGGLVQPGRSLRLSCAASGFTFSNAWMHWVRQAPGKGLEWVAQIKDKGNAYAAYDAPSVKGRFTISRDDSKNSIYLQMNSLKTEDTAVYYCHYVHYASASTVLPAFGVDAWGQGTTVTVSS
VL: DIVMTQSPLSLPVTPGEPASISCQASQELVHMNRNTYLHWYQQKPGQAPRLLIYKVSNRFPGVPDRFSGSGSGTDFTLKISRVEAEDVGVYYCAQGTSVPFTFGQGTKLEIK
B14: H183/L072 VH Y59A (antibody, name in Kabat numbering, V domains shown)
VH: QVQLVESGGGLVQPGRSLRLSCAASGFTFSNAWMHWVRQAPGKGLEWVAQIKDKGNAYAAYAAPSVKGRFTISRDDSKNSIYLQMNSLKTEDTAVYYCHYVHYASASTVLPAFGVDAWGQGTTVTVSS
VL: DIVMTQSPLSLPVTPGEPASISCQASQELVHMNRNTYLHWYQQKPGQAPRLLIYKVSNRFPGVPDRFSGSGSGTDFTLKISRVEAEDVGVYYCAQGTSVPFTFGQGTKLEIK
B15: H183/L072 VH Y58R (antibody, name in Kabat numbering, V domains shown)
VH: QVQLVESGGGLVQPGRSLRLSCAASGFTFSNAWMHWVRQAPGKGLEWVAQIKDKGNAYAARYAPSVKGRFTISRDDSKNSIYLQMNSLKTEDTAVYYCHYVHYASASTVLPAFGVDAWGQGTTVTVSS
VL: DIVMTQSPLSLPVTPGEPASISCQASQELVHMNRNTYLHWYQQKPGQAPRLLIYKVSNRFPGVPDRFSGSGSGTDFTLKISRVEAEDVGVYYCAQGTSVPFTFGQGTKLEIK
B16: H183/L072 VH Y58K (antibody, name in Kabat numbering, V domains shown)
VH: QVQLVESGGGLVQPGRSLRLSCAASGFTFSNAWMHWVRQAPGKGLEWVAQIKDKGNAYAAKYAPSVKGRFTISRDDSKNSIYLQMNSLKTEDTAVYYCHYVHYASASTVLPAFGVDAWGQGTTVTVSS
VL: DIVMTQSPLSLPVTPGEPASISCQASQELVHMNRNTYLHWYQQKPGQAPRLLIYKVSNRFPGVPDRFSGSGSGTDFTLKISRVEAEDVGVYYCAQGTSVPFTFGQGTKLEIK
B17: H183/L072 VH Y58F (antibody, name in Kabat numbering, V domains shown)
VH: QVQLVESGGGLVQPGRSLRLSCAASGFTFSNAWMHWVRQAPGKGLEWVAQIKDKGNAYAAFYAPSVKGRFTISRDDSKNSIYLQMNSLKTEDTAVYYCHYVHYASASTVLPAFGVDAWGQGTTVTVSS
VL: DIVMTQSPLSLPVTPGEPASISCQASQELVHMNRNTYLHWYQQKPGQAPRLLIYKVSNRFPGVPDRFSGSGSGTDFTLKISRVEAEDVGVYYCAQGTSVPFTFGQGTKLEIK
B18: H183/L072 VH Y58G (antibody, name in Kabat numbering, V domains shown)
VH: QVQLVESGGGLVQPGRSLRLSCAASGFTFSNAWMHWVRQAPGKGLEWVAQIKDKGNAYAAGYAPSVKGRFTISRDDSKNSIYLQMNSLKTEDTAVYYCHYVHYASASTVLPAFGVDAWGQGTTVTVSS
VL: DIVMTQSPLSLPVTPGEPASISCQASQELVHMNRNTYLHWYQQKPGQAPRLLIYKVSNRFPGVPDRFSGSGSGTDFTLKISRVEAEDVGVYYCAQGTSVPFTFGQGTKLEIK
B19: H183/L072 VH Y58M (antibody, name in Kabat numbering, V domains shown)
VH: QVQLVESGGGLVQPGRSLRLSCAASGFTFSNAWMHWVRQAPGKGLEWVAQIKDKGNAYAAMYAPSVKGRFTISRDDSKNSIYLQMNSLKTEDTAVYYCHYVHYASASTVLPAFGVDAWGQGTTVTVSS
VL: DIVMTQSPLSLPVTPGEPASISCQASQELVHMNRNTYLHWYQQKPGQAPRLLIYKVSNRFPGVPDRFSGSGSGTDFTLKISRVEAEDVGVYYCAQGTSVPFTFGQGTKLEIK
B20: H183/L072 VH Y58T (antibody, name in Kabat numbering, V domains shown)
VH: QVQLVESGGGLVQPGRSLRLSCAASGFTFSNAWMHWVRQAPGKGLEWVAQIKDKGNAYAATYAPSVKGRFTISRDDSKNSIYLQMNSLKTEDTAVYYCHYVHYASASTVLPAFGVDAWGQGTTVTVSS
VL: DIVMTQSPLSLPVTPGEPASISCQASQELVHMNRNTYLHWYQQKPGQAPRLLIYKVSNRFPGVPDRFSGSGSGTDFTLKISRVEAEDVGVYYCAQGTSVPFTFGQGTKLEIK
B21: H183/L072 VH Y58S (antibody, name in Kabat numbering, V domains shown)
VH: QVQLVESGGGLVQPGRSLRLSCAASGFTFSNAWMHWVRQAPGKGLEWVAQIKDKGNAYAASYAPSVKGRFTISRDDSKNSIYLQMNSLKTEDTAVYYCHYVHYASASTVLPAFGVDAWGQGTTVTVSS
VL: DIVMTQSPLSLPVTPGEPASISCQASQELVHMNRNTYLHWYQQKPGQAPRLLIYKVSNRFPGVPDRFSGSGSGTDFTLKISRVEAEDVGVYYCAQGTSVPFTFGQGTKLEIK

These binders were tested against T1, Human CD137 ECD (human) (assay: single mutant vs template dBBDu183H).
T1 construct: also called 4-1BB
T1 sequence (chain, as listed by the source limits assumed): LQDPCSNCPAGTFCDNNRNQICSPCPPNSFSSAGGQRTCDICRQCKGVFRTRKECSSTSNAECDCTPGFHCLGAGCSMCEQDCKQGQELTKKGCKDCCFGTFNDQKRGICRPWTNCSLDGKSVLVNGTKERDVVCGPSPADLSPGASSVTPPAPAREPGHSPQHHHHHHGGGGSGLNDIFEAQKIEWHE
For B1, the “fold change of affinity” value was 0.2 fold. For B2, the “fold change of affinity” value was 0.4 fold. In the case of B3, the “fold change of affinity” value is reported as 0.3 fold. In the case of B4, the “fold change of affinity” value is reported as 0.3 fold. With B5 the “fold change of affinity” value was 0.2 fold. B6 was tested, and the “fold change of affinity” value was 0.4 fold. For B7, the “fold change of affinity” value was 0.3 fold. With B8 the “fold change of affinity” value was 0.2 fold. For B9, the “fold change of affinity” value was 0.2 fold. With B10 the “fold change of affinity” value was 0.1 fold. B11 was tested, and the “fold change of affinity” value was 0.2 fold. With B12 the “fold change of affinity” value was 0.7 fold. With B13 the “fold change of affinity” value was 0.8 fold. B14 was tested, and the “fold change of affinity” value was 0.7 fold. In the case of B15, the “fold change of affinity” value is reported as 0.4 fold. In the case of B16, the “fold change of affinity” value is reported as 0.3 fold. With B17 the “fold change of affinity” value was 0.9 fold. B18 was tested, and the “fold change of affinity” value was 0.2 fold. In the case of B19, the “fold change of affinity” value is reported as 0.6 fold. With B20 the “fold change of affinity” value was 0.3 fold. For B21, the “fold change of affinity” value was 0.3 fold.
